Results taken from US20230270832A1, “MAGEA1 IMMUNOGENIC PEPTIDES, BINDING PROTEINS RECOGNIZING MAGEA1 IMMUNOGENIC PEPTIDES, AND USES THEREOF” (TScan Therapeutics, Inc., priority 2021, published 2023).

Target: T1, epitope from MAGEA1 presented by HLA C*07:02 (Homo sapiens, UniProt P10321+P43355, DEL298-309)
T1 construct: an individual 90-amino acid fragments representing the top-scoring MAGEA1 tile from the screen; expressed in transfected cells; host or cells: MHC monoallelic C*07:02 HEK293T cells, lentivirally transduced with the MAGEA1 90-mer
Assay: Identification of MAGEA1-reactive TCRs from pool of TCR-transduced T cells (CD137/CD69 sorting, TCR sequencing)
Type: cell-based
Settings: target cells transduced with MAGEA1 90-mer
Text: Ten orphan TCRs from this patient were pooled together to identify their cognate antigens using the genome-wide TargetScan technology. This screen identified MAGEA1 as a novel target. […] Note that the term “TCR32-39” may also be known as “TCR39” and the term “TCR32-41” may also be known as “TCR41”.
To identify the corresponding TCR from the pool of TCR-transduced T cells, Ml-IC monoallelic C*07:02 HEK293T cells engineered to express the MAGEA1 90mer were co-cultured with the pool of T cells at an E:T ratio of 1:1 for 16-24 hours. The T cells were mixed, collected by pipetting, and labeled with a CD137 microbead kit (Miltenyi) following the manufacturer's instructions. In brief, T cells were first stained with PE-labeled anti-CD137 and AF647-labeled anti-CD69 (BioLegend), washed, and then labeled with anti-PE microbeads. Labeled cells were enriched with an autoMACS® Pro separator (Miltenyi) and CD137 and CD69 double-positive cells were sorted on a MoFlo® Astrios™ Cell Sorter (Beckman Coulter). Genomic DNA was extracted from the sorted cells and the TCR expression cassette was PCR amplified and prepared for next generation sequencing (NGS).

- recognition of MAGEA1 epitope / identification as MAGEA1-reactive TCR (listed as TCR 41): hits
B1: TCR 32-41: T cell receptor recognizing MAGEA1 epitope presented by HLA-C*07:02; alpha TRAV27/TRAJ52, beta TRBV12-4/TRBJ1-4; wild type, HM and MGTM sequences listed (protein)
TCR alpha: QLLEQSPQFLSIQEGENLTVYCNSSSVFSSLQWYRQEPGEGPVLLVTVVTGGEVKKLKRLTFQFGDARKDSSLHITAAQPGDTGLYLCAGDESISYGKLTFGQGTILTVHPNIQNPEPAVYQLKDPRSQDSTLCLFTDFDSQINVPKTMESGTFITDKCVLDMKAMDSKSNGAIAWSNQTSFTCQDIFKETNATYPSSDVPCDATLTEKSFETDMNLNFQNLLVMVLRILLLKVAGFNLLMTLRLWSS
TCR beta: DAGVIQSPRHEVTEMGQEVTLRCKPISGHDYLFWYRQTMMRGLELLIYFNNNVPIDDSGMPEDRFSAKMPNASFSTLKIQPSEPRDSAVYFCASSFLGWNEKLFFGSGTQLSVLEDLRNVTPPKVSLFEPSKAEIANKQKATLVCLARGFFPDHVELSWWVNGKEVHSGVCTDPQAYKESNYSYCLSSRLRVSATFWHNPRNHFRCQVQFHGLSEEDKWPEGSPKPVTQNISAEAWGRADCGITSASYQQGVLSATILYEILLGKATLYAVLVSTLVVMAMVKRKNS
- recognition of MAGEA1 epitope / identification as MAGEA1-reactive TCR (listed as HN-32-41): recognizing the same novel epitope from MAGEA1 presented by HLA C*07:02
